Patent US20260209317A1 (US Dept. of Health and Human Services, published 2026)
Like-named read-outs stand apart in the source and are kept apart here.

What was measured:
[1] = biological target: SARS-CoV-2 omicron-BA.1 RBD protein (SARS-CoV-2, UniProt P0DTC2 319-541)
[2] = biological target: T1, SARS-CoV-2 B.1.1.7 spike protein (on pseudotyped lentivirus) (SARS-CoV-2); test: cell-based or functional assay
[3] = biological target: T2, SARS-CoV-2 Omicron BA.2.75.2 spike protein (on pseudotyped lentivirus) (SARS-CoV-2); test: cell-based or functional assay
[4] = biological target: T3, SARS-CoV-2 Omicron XBB spike protein (on pseudotyped lentivirus) (SARS-CoV-2, UniProt P0DTC2 14-1273); test: cell-based or functional assay
[5] = biological target: T4, SARS-CoV-2 Omicron BJ.1 spike protein (on pseudotyped lentivirus) (SARS-CoV-2, UniProt P0DTC2 14-1273); test: cell-based or functional assay
[6] = biological target: T5, SARS-CoV-2 B.1.351 spike protein (on pseudotyped lentivirus) (SARS-CoV-2); test: cell-based or functional assay
[7] = biological target: T6, SARS-CoV-2 Omicron BA.2 spike protein (on pseudotyped lentivirus) (SARS-CoV-2); test: cell-based or functional assay
[8] = biological target: T7, SARS-CoV-2 Omicron BA.4/BA.5 spike protein (on pseudotyped lentivirus) (SARS-CoV-2, UniProt P0DTC2 14-1273); test: cell-based or functional assay
[9] = biological target: T8, SARS-CoV-2 B.1.617.2 spike protein (on pseudotyped lentivirus) (SARS-CoV-2); test: cell-based or functional assay
[10] = biological target: T9, SARS-CoV-2 P.1 spike protein (on pseudotyped lentivirus) (SARS-CoV-2); test: cell-based or functional assay
[11] = biological target: T10, SARS-CoV-2 Omicron BA.4.6 spike protein (on pseudotyped lentivirus) (SARS-CoV-2); test: cell-based or functional assay
[12] = biological target: T11, SARS-CoV-2 Omicron BA.2.75 spike protein (on pseudotyped lentivirus) (SARS-CoV-2, UniProt P0DTC2 14-1273); test: cell-based or functional assay
[13] = biological target: T12, SARS-CoV-2 D614G spike protein (on pseudotyped lentivirus) (SARS-CoV-2, UniProt P0DTC2 14-1273); test: cell-based or functional assay
[14] = biological target: T13, SARS-CoV-2 Omicron BQ.1.1 spike protein (on pseudotyped lentivirus) (SARS-CoV-2, UniProt P0DTC2 14-1273); test: cell-based or functional assay
[15] = biological target: T1, SARS-CoV-2 B.1.1.7 spike protein (on …); test: cell-based or functional assay; remark: listed apart in the source
[16] = biological target: T2, SARS-CoV-2 Omicron BA.2.75.2 spike …; test: cell-based or functional assay; remark: listed apart in the source
[17] = biological target: T3, SARS-CoV-2 Omicron XBB spike protein …; test: cell-based or functional assay; remark: listed apart in the source
[18] = biological target: T4, SARS-CoV-2 Omicron BJ.1 spike protein …; test: cell-based or functional assay; remark: listed apart in the source
[19] = biological target: T5, SARS-CoV-2 B.1.351 spike protein (on …); test: cell-based or functional assay; remark: listed apart in the source
[20] = biological target: T6, SARS-CoV-2 Omicron BA.2 spike protein …; test: cell-based or functional assay; remark: listed apart in the source
[21] = biological target: T7, SARS-CoV-2 Omicron BA.4/BA.5 spike …; test: cell-based or functional assay; remark: listed apart in the source
[22] = biological target: T8, SARS-CoV-2 B.1.617.2 spike protein (on …); test: cell-based or functional assay; remark: listed apart in the source
[23] = biological target: T9, SARS-CoV-2 P.1 spike protein (on …); test: cell-based or functional assay; remark: listed apart in the source
[24] = biological target: T10, SARS-CoV-2 Omicron BA.4.6 spike protein …; test: cell-based or functional assay; remark: listed apart in the source
[25] = biological target: T11, SARS-CoV-2 Omicron BA.2.75 spike …; test: cell-based or functional assay; remark: listed apart in the source
[26] = biological target: T12, SARS-CoV-2 D614G spike protein (on …); test: cell-based or functional assay; remark: listed apart in the source
[27] = biological target: T13, SARS-CoV-2 Omicron BQ.1.1 spike protein …; test: cell-based or functional assay; remark: listed apart in the source

B1: B2-269.1 (antibody, V domains shown)
VH: EVQLVESGGGLVQPGGSLRLSCAASGITVSSNYMSWVRQPPGKGLDWVSLIFSGGSTYYADSVKGRFTISRDNSKNTLYLQMNSLRAEDTAVYYCARVGVAVAGTDYDIWGQGTMVTVSS
VL: DIQMTQSPSSLSASVGDRVTITCQASQDINKYLNWYQQKPGKAPKLLIYDASNLETGVPSRFSGSGSGTDFTFTISSLQPEDIATYYCLHYENLPLSFGGGTKVEIK
In the case of B1, the “EC50 (read off the curve)” value [1] is reported as about 0.04 µg/mL, the “neutralization IC50” value [2] is reported as 0.02 µg/mL and the “neutralization IC80” value [2] is reported as 0.034 µg/mL. For the same binder, the “neutralization IC50” value [3] was 0.709 µg/mL, the “neutralization IC80” value [3] was 2.5 µg/mL and the “neutralization IC50” value [4] was 0.179 µg/mL. The “neutralization IC80” value [4] was 3.56 µg/mL, the “neutralization IC50” value [5] was 0.001 µg/mL and the “neutralization IC80” value [5] was 0.008 µg/mL. The “neutralization IC50” value [6] was 0.007 µg/mL, the “neutralization IC80” value [6] was 0.022 µg/mL and the “neutralization IC50” value [7] was 0.01 µg/mL. For the same binder, the “neutralization IC80” value [7] was 0.032 µg/mL, the “neutralization IC50” value [8] was 0.013 µg/mL and the “neutralization IC80” value [8] was 0.036 µg/mL. The “neutralization IC50” value [9] was 0.028 µg/mL, the “neutralization IC80” value [9] was 0.054 µg/mL and the “neutralization IC50” value [10] was 0.01 µg/mL. For the same binder, the “neutralization IC80” value [10] was 0.025 µg/mL, the “neutralization IC50” value [11] was 0.011 µg/mL and the “neutralization IC80” value [11] was 0.031 µg/mL. The “neutralization IC50” value [12] was 1.14 µg/mL, the “neutralization IC80” value [12] was 3.54 µg/mL and the “neutralization IC50” value [13] was 0.017 µg/mL. The “neutralization IC80” value [13] was 0.039 µg/mL, the “neutralization IC50” value [14] was 0.126 µg/mL and the “neutralization IC80” value [14] was 0.576 µg/mL. The “neutralization IC50” value [15] was under 0.1 µg/mL, the “neutralization IC50” value [16] was under 1.1 µg/mL and the “neutralization IC50” value [17] was under 1.1 µg/mL. For the same binder, the “neutralization IC50” value [18] was under 0.1 µg/mL, the “neutralization IC50” value [19] was under 0.1 µg/mL and the “neutralization IC50” value [20] was under 0.1 µg/mL. For the same binder, the “neutralization IC50” value [21] was under 0.1 µg/mL, the “neutralization IC50” value [22] was under 0.1 µg/mL and the “neutralization IC50” value [23] was under 0.1 µg/mL. The “neutralization IC50” value [24] was under 0.1 µg/mL, the “neutralization IC50” value [25] was under 1.1 µg/mL and the “neutralization IC50” value [26] was under 0.1 µg/mL. For the same binder, the “neutralization IC50” value [27] was under 0.1 µg/mL.
